In patent US20250057951A1, “DISCERNIBLE CELL SURFACE PROTEIN VARIANTS OF CD117 FOR USE IN CELL THERAPY” (UNIVERSITÄT BASEL, priority 2021, published 2025):
Blank lines part the entries; values can stand above or below the molecule they belong to.

Assays:
antibody Refmab #1 [1] = assay: Octet titration, steady state KD of CD117 D1-2-3 variants to Refmab #1; format: binding
Method: To further characterize binding of Refmab #1 to CD117 D1-2-3 variants E73K, E73L, E73R, E73Y, D121H, D121K, S123K and S123F, the analytes were titrated at 7 different concentrations (from 2000 nM to 5 nM). Antibody Refmab #1 was captured by AHC biosensors for 300 s at 0.5 to 1 μg/mL. Association and dissociation to Refmab #1 was extended to 600 s and 1000 s, respectively. Steady state analysis was performed.

TF-1 cells [2] = assay: SCF-dependent proliferation, SCF titration on TF-1 cells with CD117 variants (CellTiter-Glo); format: cell-based, human; settings: titration of SCF; 3 days; TF-1 cells with the CD117 variant
Outline: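 TF-1 cells expressing wildtype or variant CD117 seeded at 150 000 cells/ml in RPMI+GlutaMax+10% FCS and titrated with SCF. Viability read by CellTiter-Glo 2.0 luminescence after 3 days; EC50 determined from two experiments, each in triplicate.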

CD117+ myeloid cells = assay: Depletion experiment in NSG mice with E73K gene-edited HSPCs; format: in vivo
Method: In another experiment, NSG mice (Jackson Laboratories) were sub-lethally irradiated one day before injection with 1 Mio gene-edited HSPCs carrying a E73K variant of CD117. 8, 10, 12 and 14 days after cell injection mice received 25 mg/kg antibody Refmab #1-Bert or 25 mg/kg isotope control antibody i.v. per dose. 16 weeks later the mice were euthanized, and blood, spleen and bone marrow were analyzed by FACS.
CD117+ myeloid cells were identified by FACS as live/hCD45+/CD33+/CD117+. […] Clone 104D2 was used as an expression control. Cells were classified as not edited (104D2+ and SR-1+) or E73K edited (104D2+ but SR-1−) based on double staining with anti-CD117 clone SR-1 and anti-CD117 clone 104D2.

antibody Refmab #1 [3] = assay: Octet screen: binding of CD117 D1-2-3 variants to captured Refmab #1; settings: nm shift at end of association, top analyte concentration (500 nM)
Outline: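 Refmab #1 captured on anti-human Fc biosensors; human CD117 D1-2-3 wt or variants flowed as analyte at 500, 50 and 5 nM, 25° C., 300 s association/900 s dissociation, buffer-referenced. Binding level at top concentration, end of association, expressed as percent of wild type; 1:1 fits where possible.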

Refmab #1 = Refmab #1 titration on engineered TF-1 cells (flow cytometry); format: binding; settings: 5-0.00015 μg/mL antibody; 4° C.
TF-1 cells [4] = assay: SCF-dependent proliferation of TF-1 cells with CD117 knock-in (CellTiter-Glo); format: cell-based, human; settings: 100 ng/ml SCF; 3 days; knock-in TF-1 cells
Method: (§1) SCF-dependent proliferation is another function of CD117. SCF-dependent proliferation was measured as follows: TF-1 cells were seeded at a cell concentration of 150 000 cells/ml in sterile, white cell culture treated plates in RPMI Media+10% FCS. Cells were treated with 100 ng/ml of SCF and a titration of various CD117 antibodies or an isotype control antibody at different concentrations. After 3 days of incubation a CellTiter-Glo 2.0 assay (Promega) was performed and luminescence was read in a luminometer (e.g. Envision or Phera Star plate readers).
(§2) CD117 wild-type TF-1 cells were compared to TF1 cells with a E73K knock in. […] Both KI1 and KI2 were obtained upon sorting the edited TF1 cells using the SONY MA900, removing any wild-type and knock out cells from the final subsets, thus yielding high purity of knock in.

TF-1 cells [5] = assay: SCF-dependent phosphorylation of CD117 variants in TF-1 cells (Tyr719 ELISA); format: cell-based, human; settings: 1-20 ng/ml SCF for 5 minutes
Method: TF-1 cells (wild type, knock out, and variants E73K, D121K and S123K of CD117) were seeded at a concentration of 1 million cells/ml in 2 ml of Medium (RPMI1640 supplemented with GlutaMAX+10% heat inactivated FBS) in a 6-well plate. Cells were treated with 1-20 ng/ml recombinant human SCF (1 mg/ml PeproGMP Recombinant Human SCF) for 5 minutes, before cell collection. Cells were washed with ice-cold PBS, before resuspending cells in 500 μL Lysis Buffer (Lysis buffer from Signaling containing Protease Inhibitor and Phosphatase Inhibitor). Cells were flash frozen in liquid nitrogen and thawed at 37° C. twice, before freezing them at −80° C. until further usage. Undiluted samples were thawed and processed according to the manufacturers protocol for the PathScan Phospho-c-Kit (Tyr719) Sandwich ELISA Kit (Cell Signaling). Absorbance (OD_450 nm) was assessed using the Envision (Perkin Elmer).

CD117 = assay: Blocking of SCF-induced CD117 phosphorylation (Tyr719 ELISA), wild type TF-1 cells; format: cell-based, human; settings: 0.5 ug/mL antibody or 500 nM avapritinib; 100 ng/ml SCF 5 minutes
Method: (§3) SCF-dependent phosphorylation is another function of CD117. SCF-dependent phosphorylation was measured using TF-1 cells expressing CD117 (as shown in previous experiments). TF-1 cells were seeded at a concentration of 1 million cells/ml in 1 ml of Medium (RPMI1640 supplemented with GlutaMAX+10% heat inactivated FBS) in a 6-well plate. Cells were treated with 0.5 ug/mL antibody or 500 nM avapratinib. Cells were then treated with 100 ng/ml recombinant human SCF (1 mg/ml PeproGMP® Recombinant Human SCF) for 5 minutes, before cell collection. Cells were washed with ice-cold PBS, before resuspending cells in 250 μL Lysis Buffer (Lysis buffer from Signaling containing Protease Inhibitor and Phosphatase Inhibitor). Cells were flash frozen in liquid nitrogen and thawed at 37° C. twice, before freezing them at −80° C. until further usage. Undiluted samples were thawed and processed according to the manufacturers protocol for the PathScan® Phospho-c-Kit (Tyr719) Sandwich ELISA Kit (Cell Signaling). Absorbance (OD_450 nm) was assessed using the Envision (Perkin Elmer).
(§4) TF-1 cells (wild type, and variants E73K, E73Y, D121K, S123F and S123K of CD117) were seeded at a concentration of 1 million cells/mL in 2 ml of Medium (RPMI1640 supplemented with GlutaMAX+10% heat inactivated FBS) in a 6-well plate. Cells were pre-treated with 0.5 μg/ml of antibodies Refmab #1-Ernie or Refmab #1-Bert for 30 minutes, before adding 100 ng/ml recombinant human SCF (1 mg/mL PeproGMP® Recombinant Human SCF) for 5 minutes. Cells were collected, washed once with ice-cold PBS and resuspended in 500 μL Lysis Buffer (Lysis buffer from Signaling containing Protease Inhibitor and Phosphatase Inhibitor). Cells were then flash frozen in liquid nitrogen and thawed at 37° C. twice, before freezing them at −80° C. until further usage. Undiluted samples were thawed and processed according to the manufacturers protocol for the PathScan Phospho-c-Kit (Tyr719) Sandwich ELISA Kit (Cell Signaling) or the Human c-Kit (CD117) ELISA Kit (Abcam). Absorbance (OD_450 nm) was assessed using the Envision (Perkin Elmer).

variants of CD117 = assay: Blocking of SCF-induced CD117 phosphorylation (Tyr719 ELISA), TF-1 cells with CD117 variants; format: cell-based, human; settings: 100 ng/ml SCF 5 minutes
Method: as §3, §4

[6] = system: TF-1 cells with knock-ins of CD117 variants; assay: Inhibition of SCF-dependent proliferation, TF-1 cells with CD117 variant knock-in; format: cell-based, human; settings: 100 ng/ml SCF; increasing concentrations; 3 days; E73K; all variants tested; listed as RefMab #1
Method: as §1, §2
(§5) Next, proliferation of the variants was tested with increasing concentrations of RefMab #1 at a constant concentration of SCF (100 ng/ml). TF-1 cells were seeded at a cell concentration of 150 000 cells/ml in sterile, white cell culture treated plates with transparent bottom in RPMI+GlutaMax+10% FCS and a fix concentration of 100 ng/ml SCF in the media, Cells were treated with different concentrations of RefMab #1. After 3 days of incubation a CellTiter-Glo 2,0 assay (Promega) was performed, luminescence was read in a luminometer (Envision plate reader).

HSPC's = assay: Inhibition of SCF-dependent proliferation, HSPCs; format: cell-based, human
Method: For human CD34+ HSCs (different donors) cells are seeded in X-Vivo 20 medium with 100 ng/ml SCF, 50 ng/ml TPO and 50 ng/ml FLT-3 Ligand in sterile white cell culture treated plates at a cell density of 30 000 cells/ml. HSCs are then treated with various CD117 antibodies or an isotype control antibody at different concentrations and plates are incubated for 5 days. After 5 days a CellTiter-Glo 2.0 assay (Promega) is performed and luminescence is read in a luminometer (e.g. Envision or Phera Star plate readers).

wild type TF-1 cells = assay: Inhibition of SCF-dependent proliferation, wild type TF-1 cells; format: cell-based, human; settings: for effect on SCF-dependent proliferation of wild type TF-1 cells: 100 ng/ml SCF, increasing concentrations, 3 days
Method: as §1, §5

CD34+ progenitor cells = assay: Additional HSC depletion experiment in NBSGW mice with edited HSPCs; format: in vivo; settings: 4 mg/kg i.v. days 7, 9, 11, 12, 16 weeks, vs isotype control
Method: (§6) Depletion of human HSCs in mice using various mAbs was adapted from Pang et al. (Blood (2019) 133:2069-78).
NBSGW mice (Jackson Laboratories) were injected with 1 Mio HSPCs from 2 different donors carrying a E73K, S123K or D121K variant of CD117. Control groups of mice received unedited electroporation control HSPCs. 7, 9, 11 and 12 days after cell injection mice received 4 mg/kg antibody Refmab #1-Bert per dose i.v. 16 weeks later the mice were euthanized and blood, spleen and bone marrow were analyzed by FACS. To identify unedited and edited cells the CD117-specific antibody clones 104D2 and SR-1 were used. […] Cells were classified as unedited (104D2+ and SR-1+) or edited (104D2+ but SR-1−) based on double staining with both anti-CD117 clones.

human HSCs = assay: HSC depletion in NBSGW mice engrafted with human HSPCs; format: in vivo; settings: 25 mg/kg i.v. days 8, 10, 12, 14; analysis 16 weeks later; vs isotype control; live/hCD45+/CD34+/CD38−/CD45RA−/CD90+
Method: as §6
NBSGW mice (Jackson Laboratories) were injected with 1 Mio HSPCs. 8, 10, 12 and 14 days after cell injection mice received 25 mg/kg antibody Refmab #1-Bert per dose i.v. 16 weeks later the mice were euthanized and blood, spleen and bone marrow were analysed by FACS. […] HSCs were identified by FACS as live/hCD45+/CD34+/CD38−/CD45RA−/CD90+.

[7] = 25 mg/kg i.v. days 8, 10, 12, 14, 16 weeks, vs isotype control

- Kd (antibody Refmab #1 [1]; 7 concentrations 2000-5 nM, steady state, two individual experiments): 1.2 µM
- change of KD compared to wild type CD117 (antibody Refmab #1 [1]; KD variant vs wild type): 1200 fold
- binding to Refmab #1 compared to wild type (antibody Refmab #1 [3]): strong decrease in binding
Molecule: E73K: variant of human CD117 (SEQ ID NO: 1) with substitution E73K
- EC50 Experiment #1 (TF-1 cells [2]): 0.00373 µg/mL
- EC50 Experiment #2 (TF-1 cells [2]): 0.00342 µg/mL
- engraftment of edited CD34+ human cells in immune-deficient mice (CD117+ myeloid cells; in the presence of isotype control antibody): engraft essentially as well as unedited cells
- Binding of Refmab #1 to TF-1 cells expressing the CD117 variant (Refmab #1): completely abolished
- SCF-dependent proliferation (TF-1 cells [4]): strongly proliferated
- SCF-dependent phosphorylation at position Tyr719 of CD117 (TF-1 cells [5]): showed a SCF-dependent phosphorylation

B1: Refmab #1: anti-CD117 antibody, VH SEQ ID 15, VL SEQ ID 16, human IgG1 Fc silent (AEASS); also tested as Fab (antibody, V domains shown)
VH: QVQLQQPGAELVKPGASVKMSCKASGYTFTSYNMHWVKQTPGQGLEWIGVIYSGNGDTSYNQKFKGKATLTADKSSSTAYMQINSLTSEDSAVYYCARERDTRFGNWGQGTLVTVSA
VL: NIVLTQSPASLAVSLGLRATISCRASESVDIYGNSFMHWYQQKPGQPPKLLIYLASNLESGVPARFSGSGSRTDFTLTIDPVEADDAATYYCQQNNEDPYTFGGGTKLEIK
modifications: human IgG1 Fc silent (AEASS); Refmab #1 VH; Refmab #1 VL
notes: also tested as Fab
- blocking of SCF-induced phosphorylation, wild type cells (CD117): can be blocked
- blocking of SCF-induced phosphorylation, E73K variant (variants of CD117; 0.5 ug/mL antibody or 500 nM avapritinib): unaffected
- effect on SCF-dependent proliferation of TF-1 cells with CD117 variants [6]: not affected
- IC50 in SCF-dependent proliferation assay (HSPC's): 0.0623 µg/mL
- effect on SCF-dependent proliferation of wild type TF-1 cells (wild type TF-1 cells): decrease in proliferation
- effect on SCF-dependent proliferation of wild type TF-1 cells (wild type TF-1 cells; listed as RefMab #1): pronounced effect
- IC50 in SCF-dependent proliferation assay (wild type TF-1 cells; TF-1 cells): 0.2760 µg/mL

B2: Refmab #1-Bert: improved version of Refmab #1, VH SEQ ID 15, VL SEQ ID 63 (antibody, V domains shown)
VH: B1 VH
VL: EIVLTQSPSSLSASVGDRVTITCRASESVDIYGESFMHWYQQKPGKAPKLLIYLASNLESGVPSRFSGSGSGTDFTLTISSLQPEDFATYYCQQNKEEPYTFGQGTKLEIKRTV
modifications: Refmab #1 VH
- blocking of SCF-induced phosphorylation, wild type cells (CD117): blocked
- blocking of SCF-dependent CD117 phosphorylation, D121K and S123K variants (variants of CD117; 0.5 μg/ml antibody 30 minutes, same for E73K, E73Y, S123F (data not shown)): unaffected
- effect on E73K, D121K and S123K-edited cells (CD34+ progenitor cells): enrichment of E73K, D121K and S123K-edited variant cells
- effect on unedited CD34+ progenitor cells (CD34+ progenitor cells; live/hCD45+/CD34+/CD38−): depletion of unedited CD34+ progenitor cells
- effect on E73K variant CD117+ myeloid cells in bone marrow (CD117+ myeloid cells; [7]): enrichment of E73K variant cells
- effect on unedited CD117+ myeloid cells in bone marrow (CD117+ myeloid cells; [7]): depletion of unedited cells
- bone marrow HSC depletion (human HSCs): in vivo depletion of HSCs
